Results from US11376333B2, “mTG substrates for covalent conjugation of compounds” (COVALAB, priority 2013, dated 2022).
Where no end group is shown, it is not given here.

biological target: T1, microbial transglutaminase (mTG) (Streptomyces mobaraensis, UniProt P81453); test: Colorimetric assay: mTG incorporation of biotinylated peptides into immobilized spermine, apparent Km; type: biochemical; details: biotin tagged peptides at 160-0 μM, spermine plate, Lineweaver-Burk; nr = peptide not recognized by the enzyme
T1 construct: purchased Covalab, France opr 0054
T1 sequence (P81453 77-407): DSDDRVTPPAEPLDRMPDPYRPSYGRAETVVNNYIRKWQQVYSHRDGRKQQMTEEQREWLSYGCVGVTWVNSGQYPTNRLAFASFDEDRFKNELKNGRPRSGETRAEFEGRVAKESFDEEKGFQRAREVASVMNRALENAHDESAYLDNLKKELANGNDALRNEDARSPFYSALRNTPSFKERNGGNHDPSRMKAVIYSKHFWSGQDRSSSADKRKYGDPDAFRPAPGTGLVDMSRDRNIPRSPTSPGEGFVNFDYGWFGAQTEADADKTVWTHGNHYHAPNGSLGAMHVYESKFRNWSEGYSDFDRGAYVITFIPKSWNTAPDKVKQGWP
Text: To produce the Covabtest-spm plate, the procedure previously described in Mily et al (2009) was used.
For the screening of the peptide listed in table 2 (Biotinylated peptides) the inventors used our colorimetric assay to measure transglutaminase 2 (TG2) cross linking activity (Mily et al, 2009) and commercialized under ref opr0033 in which mTG was used instead of TG2 and described in this experience. The principle of the method is based on the transamidation activity of mTG, using covalently coupled spermine to carboxy-substituted polystyrene plates and biotinylated peptides. The assay consists of the incorporation of the glutamine gamma-carboxamide group into the immobilized spermine. The amount of biotinylated peptide bound to the plate, as measured by the activity of streptavidin-peroxidase, is directly proportional to the TG activity. Absorbance was measured at 450 nm using the microplate reader.
In order to compare the affinity of mTG to the preferred substrate, the peptides were used at different concentrations ranging from 160, 80, 40, 20, 10, 5, 2.5 and 0 μM. Then the apparent Km were determined for each peptide and were calculated by Lineweaver-Burk method (1/Absorbance=f(1/[mTG (μM)]).
In this experiment, spermine was conjugated into the plate as described in B-II-4. Biotinylated peptides described in table 3 were incubated with mTG at different concentration (160, 80, 40, 20, 10, 5, 2.5 and 0 μM). […] Even if E seems to abolish the reactivity of the peptides this cannot be due to the negative charge only but also to the nature of the amino acides at the position X+1, X+2 and X+3. […] This is confirmed with LN-11Q8Q10 peptide.

| Substance | Kmapp |
| --- | --- |
| YEIQR [BEST1] | 0.086 µM |
| HDLMWPDVYSQH (also: biotin, place not given here) [bHH12Q11] | 3.08 µM |
| WPLMMQD (also: biotin) [bWD7Q7] | nr |
| HDLMWPDVYSNH (also: biotin, place not given here) [bHH12N11] | nr |
| WPAQR [BEST4] | 0.225 µM |
| CHQSYV (also: biotin, place not given here) [bCV6Q3] | nr |
| YEAQR [BEST3] | 0.08 µM |
| PLVQSH (also: biotin, place not given here) [bPH6Q4] | 14.77 µM |
| WPDVYSQH (also: biotin) [bWH8Q7] | 11.40 µM |
| DVYSNH (also: biotin, place not given here) [bDH6N5] | nr |
| HSQALP [bHP6Q3(A)] | nr |
| FWIQE (also: biotin, place not given here) [bFE5Q4] | 5.00 µM |
| DVYSQE (also: biotin, place not given here) [bDE6Q5] | nr |
| KEEFQPL (also: biotin, place not given here) [bKL7Q5] | nr |
| LLTLPSVSEQN (also: biotin, place not given here) [bLN11Q10] | nr |
| YEAQK [BEST2] | 0.114 µM |
| PSVQES (not fully specified; also: biotin tag, site not given here) [bPS6Q3] | nr |
| VWRSQYF (also: biotin, place not given here) [bVF7Q5] | nr |
| SPLKHQEY (also: biotin, place not given here) [bSY8Q6] | >50.00 µM |
| LLTLPSVQEQN (also: biotin, place not given here) [bLN11Q8-10] | 172.00 µM |
| DVYSQH (also: biotin, place not given here) [bDH6Q5] | 33.10 µM |
| YEVQK [BEST5] | 0.126 µM |
| HNKSQAL (also: biotin tag, position not given here) [bHL8Q6] | nr |

same assay, conditions: biotinylated peptides, spermine plate

| Substance | reactivity of peptide with mTG (text on Table 3) |
| --- | --- |
| YEIQR [BEST1] | excellent substrates |
| FWIQE (Peptide FE5Q4) | high reactivity with mTG |
| WPAQR [BEST4] | excellent substrates |
| DVYSQH (Peptide DH6Q5) | highly reactive with mTG |
| YEAQR [BEST3] | excellent substrates |
| DVYSQE (also: biotin, place not given here) [bDE6Q5] | reactivity seems to be lost |
| LLTLPSVSEQN (also: biotin, place not given here) [bLN11Q10] | inhibit completely the reactivity |
| YEAQK [BEST2] | excellent substrates |
| WPDVYSQH (Peptide WH8Q7) | highly reactive with mTG |
| YEVQK [BEST5] | excellent substrates |

biological target: T1, microbial transglutaminase (mTG); test: mTG incorporation of biot-cad into coated BSA-peptide conjugate, with free-peptide competition; type: biochemical; details: 1 μg/ml coated, mTG 100 ng/ml, biotin-cad 0.1 mg/ml
Method: 2 mg of each peptide was dissolved in 1 ml of deionized water and 150 nmoles were mixed with 0.5 mg BSA solubilized in 50 mM bicarbonate buffer pH9.5. After shaking, glutaraldehyde was added at a final concentration of 0.25% (v/v). The mixtures were kept at room temperature during 16 hrs under gentle shaking. At the end of this incubation time, sodium borohydride was added at a final concentration of 10 mg/ml to stabilize the cross-linking between BSA and the peptides. After 2 hours each mixture of peptide-BSA was dialyzed separately in PBS to remove any free peptides.
High binding 96 wells-microtiter plates (Costar) were used to immobilize BSA-peptide and to human IgG-peptide conjugates prepared as described in M-4 and M-5. For these experiments, conjugates were prepared at 50 μg/ml in 50 mM sodium carbonate buffer pH 9 and 100 μl of each solution was dispensed in the number of wells needed for the experiment. After overnight incubation at 4° C., the plates were washed extensively with Tris Buffer Saline (TBS) and were ready to be used for TG activity.
The same procedure was used as described in B-II-1
In the literature its well known that many proteins are not substrate of transglutaminase even if many glutamine residues are present in their structures (Gorman J J, Folk J E. J Biol Chem. 1984 Jul. 25; 259(14):9007-10). […]

| Substance | incorporation of biot-cad by mTG into coated protein |
| --- | --- |
| free BSA: non modified bovine serum albumin, control [reference compound] | no reactivity |

biological target: T1, microbial transglutaminase (mTG); test: mTG-mediated incorporation of biotin-X-cadaverine into peptides coupled on Covabtest plate; type: biochemical; details: 15 nmoles peptide coupled to plate, biot-cad 0.1 mg/ml, mTG 10 ng/well
Method: The coupling method was previously described by the Applicant (V. Thomas et al, 2004) and also in the corresponding data sheet of CovAbtest-Plate™ which is commercially available from Covalab (Ref #opr0004). Briefly, in separate tubes a solution mixture containing 150 μM of each peptide dissolved in 10 mM phosphate buffer pH5, 5 mM EDAC and 5 mM NHS was incubated for 30 min under gentle shaking. The resulting activated NHS-carboxyl C-terminal moiety of each peptide (15 nmoles) was used to be conjugated in each well of CovAbtest-Plate™ previously deprotonated during 15 min with 150 μl 0.6% sodium bicarbonate per well. The microtiter plate was then incubated during 2 hrs at room temperature and washed extensively with Tris Buffer Saline.
For this experiment we used the same procedures described by V Thomas et all (2004) and also in the Covalab's commercialized kit (opr0033). Briefly the Lyophilized transglutaminase was reconstituted in 40 mM tris buffer pH 8 and 50 μl of each mTG at 200 ng/ml and at 40 ng/ml were added in the wells containing 50 μl of biotin-X-cadaverine. The enzymatic mixture was incubated for 15 min at room temperature under gentle shaking. Then the plates were washed 3 times with TBS-Tween20 followed by the addition of 100 μl of diluted HRP labeled streptavidine ( 1/2000 in TBS Tween20, 0.5% BSA) in each well. After 30 min at room temperature and 3 washings in TBS-Tween20, 100 μL of TMB substrate were added and after 5 min the colour development was stopped using 100 μl of 0.5 M sulfuric acid. Absorbances at 450 nm were measured using a microplate reader (Multiskan, Labsystems, Helsinki, Finland).
To screen the peptide library (Covalab) and identify the putative new substrates of mTG we used Covabtest-peptide (described in B-I-1) in which the peptides were covalently coupled into the plates and the amine substrate Biotin-cadeverine (biot-cad) was free in solution. In this experiment 15 nmoles of each peptide (table 2) were covalently conjugated to microtiter plate and the incorporation of biot-cad (0.1 mg/ml) catalyzed by mTG (10 ng/well) was determined following the experiment described in B-II-1. Among all the peptides tested only few peptides were recognized by mTG as Gln (Q) donor to incorporate biot-cad as shown in the FIG. 1. The enzymatic activity was different between the peptide substrates. […] When Q is replaced by N (peptide HH12N11) no reactivity of the mTG was observed confirming the specificity of the enzyme to Gln donor. Moreover, if the reactivity of the 4 peptides (HH12Q11, DH6Q7, HG14Q11 and WG10Q7) is compared, it can be observed that the reactivity of the Gln depends on its position in the peptide sequence. In the most reactive peptides Q is located at the C-terminal. […]

| Substance | reactivity as Gln donor for mTG incorporation of biot-cad |
| --- | --- |
| FWIQE (Peptide FE5Q4) | good substrate for mTG |
| GGSPLAQSHGGS (Peptide GS12Q7) [reference compound] | low reactivity |
| HDLMWPDVYSNH [HH12N11] | no reactivity |

biological target: T1, microbial transglutaminase (mTG); test: mTG reaction on preferred substrates and Q-to-N mutated analogues; type: biochemical; details: mutated analogue peptides
Text: In order to confirm the specificity of mTG reaction on the highly reactive peptide HH12Q11 and its small derivatives DH6N5, the inventors synthesized the mutated analogue peptides in which the Gln donors (Q) were replaced by asparagine (N).

| Substance | mTG reactivity after replacement of Q by N |
| --- | --- |
| DVYSNH (Peptide DH6N5) | abolish totally the enzyme reactivity |
| HDLMWPDVYSNH [HH12N11] | abolish totally the enzyme reactivity |
